The source of these data is article PMC5041495.

The target in one data set is MAPK1 (UniProt P28482 1-360). Kind of data set: BLI.
A further data set addresses VEGF165 (human, UniProt P15692-4 27-191). Briefly: BLI.
Data set [1] has as its target T1, alpha-thrombin (human, UniProt P00734;P00734 328-363;364-622). Kind of data set: BLI.
The target of the next data set is T2, VEGF164 (mouse, UniProt Q00731-2 27-190).
T2 sequence: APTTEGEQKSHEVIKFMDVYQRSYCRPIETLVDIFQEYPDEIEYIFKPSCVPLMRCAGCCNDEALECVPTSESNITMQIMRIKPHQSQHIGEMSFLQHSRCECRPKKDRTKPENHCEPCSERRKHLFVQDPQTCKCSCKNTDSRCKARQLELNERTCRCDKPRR
Briefly: BLI.

Data set [2] deals with T1, alpha-thrombin. Kind of data set: BLI. This is another data set of the same source.
In data set [3] the target is T1, alpha-thrombin. Kind of data set: SPRi.
In data set [4] the target is T1, alpha-thrombin. Kind of data set: BLI. This is another data set of the same source.

MAPK1, sequence (P28482 whole entry): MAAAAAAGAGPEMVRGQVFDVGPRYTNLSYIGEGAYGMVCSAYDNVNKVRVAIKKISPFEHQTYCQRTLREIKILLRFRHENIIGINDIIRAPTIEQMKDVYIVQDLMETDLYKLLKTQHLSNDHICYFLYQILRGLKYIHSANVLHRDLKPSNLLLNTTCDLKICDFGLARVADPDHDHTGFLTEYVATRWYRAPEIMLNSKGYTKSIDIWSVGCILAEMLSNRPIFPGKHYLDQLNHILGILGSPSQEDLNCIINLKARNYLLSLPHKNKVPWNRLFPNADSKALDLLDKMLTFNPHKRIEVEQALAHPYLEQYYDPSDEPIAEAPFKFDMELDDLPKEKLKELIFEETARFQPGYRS

B1: AF113-1 (structured_RNA)
RNA: GGGAACAAAGCUGAAGUACUUACCC
modifications: 2'-F pyrimidines (from crystal construct; ST-2 not in material)
With B1, the binding result with MAPK1, with VEGF165 and with VEGF164 was “no binding” throughout. The molecule also gave an equilibrium dissociation constant (Kd) with alpha-thrombin [1] of 1870 ± 36 pM.

B2: AF113-18 (structured_RNA)
RNA: GGGAACAAAGCUGAAGUACUUACCC
modifications: 2'-F pyrimidines; PS2 at 3'-phosphate of U17
For the molecule B2, the equilibrium dissociation constant (Kd) with alpha-thrombin [2] came to 1.8 ± 0.2 pM; with alpha-thrombin [3], 4.5 ± 0.2 pM; with alpha-thrombin [4] it was 1 ± 0.1 pM. Further, the binding result in the data set with MAPK1, with VEGF165 and with VEGF164 was “no binding” throughout.
